Source: IntAct's records for PubMed 17012600

B1: Protein NDR1 (Arabidopsis thaliana (Mouse-ear cress)), O48915 (parent)
chain: MNNQNEDTEGGRNCCTCCLSFIFTAGLTSLFLWLSLRADKPKCSIQNFFIPALGKDPNSRDNTTLNFMVRCDNPNKDKGIYYDDVHLNFSTINTTKINSSALVLVGNYTVPKFYQGHKKKAKKWGQVKPLNNQTVLRAVLPNGSAVFRLDLKTQVRFKIVFWKTKRYGVEVGADVEVNGDGVKAQKKGIKMKKSDSSFPLRSSFPISVLMNLLVFFAIR
partner: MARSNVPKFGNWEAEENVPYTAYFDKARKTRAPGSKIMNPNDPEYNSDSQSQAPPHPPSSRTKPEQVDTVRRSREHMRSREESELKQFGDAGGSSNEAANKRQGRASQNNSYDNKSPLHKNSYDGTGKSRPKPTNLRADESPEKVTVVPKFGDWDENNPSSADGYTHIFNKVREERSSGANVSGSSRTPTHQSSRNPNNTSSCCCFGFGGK

Variants of: B1
Settings: with rin4_arath RIN4, Q8GYN5

effect of a mutation on the interaction	Variant
disrupting interaction	Q4A
disrupting interaction	N5A
